From patent US20250288643A1
Substitutions are numbered along the chain they refer to.

T1: mouse CD47 (mouse) (UniProt Q61735)
T1 sequence (looked up): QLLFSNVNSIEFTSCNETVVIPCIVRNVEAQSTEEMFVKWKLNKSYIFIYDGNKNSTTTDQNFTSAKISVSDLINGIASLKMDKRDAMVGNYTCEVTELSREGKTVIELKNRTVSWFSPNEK

B1: 4RP13-4-5C (designed binder)
hSIRPα IgV domain mutant: EEELQVIQPDKSVSVAAGESAILNCTVTSLIPVGPIQWFRGAGPARELIYNQKHQTFPRVTTVSEQTKRENRDFSISISNITPADAGTYYCVKFRKGSPDTEFKSGAGTELSVRAKPS
B2: 4RP13-5-6G (designed binder)
hSIRPα IgV domain mutant: B1 hSIRPα IgV domain mutant with N24R, I31T, H54A, Q55K, T56Q, Q66S, R72M, D73I
B3: 4RP13-3-10B (designed binder)
hSIRPα IgV domain mutant: B1 hSIRPα IgV domain mutant with N24H, I31Y, H54G, Q55R, T56R, Q66S, E70A, R72M
B4: 2R-1-4B (designed binder)
hSIRPα IgV domain mutant: B1 hSIRPα IgV domain mutant with N24H, I31A, H54L, Q55D, T56S, Q66S, N71S, R72M
B5: 2R-1-7B (designed binder)
hSIRPα IgV domain mutant: B1 hSIRPα IgV domain mutant with N24H, T26I, H54I, Q55L, Q66S, R72Y
B6: 4RP13-3-7B (designed binder)
hSIRPα IgV domain mutant: B1 hSIRPα IgV domain mutant with N24T, I31Y, H54R, Q66S, E70F, R72M
B7: 2RP-1-3E (designed binder)
hSIRPα IgV domain mutant: B1 hSIRPα IgV domain mutant with N24T, I31W, H54G, T56N, Q66S, E70F, R72M
B8: 4RP13-3-4D (designed binder)
hSIRPα IgV domain mutant: B1 hSIRPα IgV domain mutant with N24H, I31L, H54S, Q55K, T56V, Q66S, E70R, R72M
B9: 2R-1-10B (designed binder)
hSIRPα IgV domain mutant: B1 hSIRPα IgV domain mutant with N24H, H54N, Q55L, T56I, Q66S, T67G, R72M

These binders were tested against T1, mouse CD47 (mouse) (assay: ELISA, coated mouse CD47 ECD Fc, supernatant, anti-c-Myc HRP).

Row | Binder | mCD47 binding (OD)
1 | B1 | 0.116 OD
2 | B2 | 0.149 OD
3 | B3 | 0.17 OD
4 | B4 | 0.082 OD
5 | B5 | 0.087 OD
6 | B6 | 0.152 OD
7 | B7 | 0.113 OD
8 | B8 | 0.173 OD
9 | B9 | 0.086 OD
